Patent US20150056301A1 (CANBAS, published 2015)
Where no end group is shown, it is not given here. [ ]: non-standard residue; d: D form. dPhe(4-NO2) = N[C@H](Cc1ccc([N+](=O)[O-])cc1)C(=O)O; dPhe(F5) = N[C@H](Cc1c(F)c(F)c(F)c(F)c1F)C(=O)O; dBpa = N[C@H](Cc1ccc(C(=O)c2ccccc2)cc1)C(=O)O; dCha = N[C@H](CC1CCCCC1)C(=O)O

T1: baculovirus derived recombinant human full length Chk1 with histidine tag (human, UniProt O14757 1-476)
T1 sequence: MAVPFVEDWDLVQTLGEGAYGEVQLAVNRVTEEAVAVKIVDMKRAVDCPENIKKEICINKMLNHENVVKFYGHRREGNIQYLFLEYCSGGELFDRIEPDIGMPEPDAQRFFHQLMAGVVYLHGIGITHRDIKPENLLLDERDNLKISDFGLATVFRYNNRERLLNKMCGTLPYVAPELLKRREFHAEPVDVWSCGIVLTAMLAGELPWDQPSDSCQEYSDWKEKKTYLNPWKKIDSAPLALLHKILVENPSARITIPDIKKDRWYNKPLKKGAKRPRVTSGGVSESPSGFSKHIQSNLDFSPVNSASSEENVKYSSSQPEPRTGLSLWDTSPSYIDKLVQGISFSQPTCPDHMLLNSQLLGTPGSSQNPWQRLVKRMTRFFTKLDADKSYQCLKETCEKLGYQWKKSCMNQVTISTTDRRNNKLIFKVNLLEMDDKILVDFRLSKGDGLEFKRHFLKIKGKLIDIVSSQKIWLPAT


What was measured:
Assay in all cases: cell-based or functional assay
[1] = target: E. Coli derived recombinant human full length Chk2 fused with GST (human, UniProt O96017 1-543)
[2] = target: T1, baculovirus derived recombinant human …
purified CHK2 kinase = purified CHK2 kinase (UniProt O96017 1-543)
PKA = target: PKA

Sequence of E. Coli derived recombinant human full length Chk2 fused with GST (O96017 whole entry, the tested form may be a part): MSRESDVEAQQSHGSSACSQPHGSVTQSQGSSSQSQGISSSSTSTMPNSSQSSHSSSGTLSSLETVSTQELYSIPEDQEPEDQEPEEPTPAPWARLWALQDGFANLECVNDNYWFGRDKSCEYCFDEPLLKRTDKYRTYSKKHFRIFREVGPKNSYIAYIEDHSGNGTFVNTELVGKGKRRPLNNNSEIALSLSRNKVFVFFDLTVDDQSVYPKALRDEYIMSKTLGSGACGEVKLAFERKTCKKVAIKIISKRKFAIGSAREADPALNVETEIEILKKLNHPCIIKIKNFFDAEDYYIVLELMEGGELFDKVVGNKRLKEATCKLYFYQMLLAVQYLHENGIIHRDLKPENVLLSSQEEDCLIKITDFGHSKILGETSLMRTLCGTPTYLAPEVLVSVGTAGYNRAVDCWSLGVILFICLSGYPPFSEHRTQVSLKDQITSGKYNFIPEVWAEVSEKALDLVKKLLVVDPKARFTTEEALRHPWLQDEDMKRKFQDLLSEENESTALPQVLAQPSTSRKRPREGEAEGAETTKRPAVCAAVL
Sequence of purified CHK2 kinase (O96017 whole entry): as the sequence (O96017 whole entry, the tested form may be a part) above

Row | Binder | Kinase inhibition analysis of peptides (phosphorylation of serine 216 on GST-Cdc25C 167-267, enzyme linked immune assay) [1] | Kinase inhibition analysis of peptides (phosphorylation of serine 216 on GST-Cdc25C 167-267, enzyme linked immune assay) [2] | IC50 in µM, kinase inhibition analysis (PepTag Non-Radioactive Protein Kinase Assay) (purified CHK2 kinase) | IC50 in µM, kinase inhibition analysis (PepTag Non-Radioactive Protein Kinase Assay) (PKA)
1 | [dBpa][dS][dW][dS][dPhe(F5)][dCha][dR][dR][dR][dQ][dR][dR] [CBP501] | 18.6 | 7.9 | – | –
2 | YGRKKRRQRRRXFXYY ((l-Tyr)(l-Gly)(l-Arg)(l-Lys)(l-Lys)(l-Arg)(l-Arg)(l-Gln)(l-Arg)(l-Arg)(l-Arg)(l-Cha)(l-Phe-2,3,4,5,6-F)(l-aminoundecanoic acid)(l-Tyr)(l-Tyr): position 12 cyclohexyl-alanine; position 13 pentafluoro-phenylalanine; position 14 aminoundecanoic acid) [CBP440] | – | – | 8 µM | 180 µM
3 | [dY][dBpa][dS][dW][dS][dPhe(F5)][dCha][dR][dR][dR][dQ][dR][dR] [CBP500] | 8 | 5.6 | – | –
4 | [dY][dY][dS]G[dS][dR][dPhe(F5)][dCha][dR][dR][dR][dQ][dR][dR][dK][dK][dR]G[dY] [CBP450] | – | – | 10 µM | > 400 µM
5 | [dBpa][dD][dS][dW][dS][dPhe(F5)][dCha][dR][dR][dR][dQ][dR][dR] (also: cyclised or stapled (no detail)) [CBP505] | > 100 | 63.4 | – | –
6 | [dBpa][dS][dW][dS][dPhe(4-NO2)][dCha][dR][dR][dR][dQ][dR][dR] (also: cyclised or stapled (no detail)) [CBP603] | 18.1 | 15.5 | – | –
